The record followed here is patent US20240383982A1 (Genmab, published 2024).

Assay [1] concerns the target T1, pig (Sus scrofa) B7H4, full length, on HEK-293F cells (pig, UniProt Q7Z7D3 26-282 (human entry)).
T1 construct: Uniprot F1SAY4; also called pig B7H4
T1 chain: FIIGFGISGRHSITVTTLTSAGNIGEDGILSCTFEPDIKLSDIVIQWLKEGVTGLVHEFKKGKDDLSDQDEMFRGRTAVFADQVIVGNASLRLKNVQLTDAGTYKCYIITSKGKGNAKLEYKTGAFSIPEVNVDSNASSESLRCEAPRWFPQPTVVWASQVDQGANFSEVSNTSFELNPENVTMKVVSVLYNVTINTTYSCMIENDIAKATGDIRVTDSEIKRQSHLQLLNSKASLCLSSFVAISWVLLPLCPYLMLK
Put plainly: flow cytometry, HEK-293F cells transfected with pig B7H4 [panel Pig B7H4]. On the procedure:
Cells (3×10⁴ cells/well) were incubated in polystyrene 96-well round-bottom plates (Greiner bio-one, cat. no. 650180) with serial dilutions of antibodies (ranging from 0.000458 to 30 μg/mL in 4-fold dilution steps) in 100 μL PBS/0.1% BSA/0.02% azide (staining buffer) at 4° C. for 30 min. Experiments were performed in technical duplicate. After washing twice in staining buffer, cells were incubated in 50 μL secondary antibody at 4° C. for 30 min. As a secondary antibody, R-Phycoerythrin (PE)-conjugated goat-anti-human IgG F(ab′)₂ (1:500 in FACS buffer; Jackson ImmunoResearch Laboratories, Inc., West Grove, PA, cat. no. 109-116-098), was used. Cells were washed twice in staining buffer, re-suspended in 30 μL FACS buffer containing Topro-3 (1:10,000 dilution) and analyzed on an iQue Screener (Intellicyt Corporation, USA). Binding curves were analyzed using non-linear regression (sigmoidal dose-response with variable slope) using GraphPad Prism V7.02 software (GraphPad Software, San Diego, CA, USA).

The target of the next assay is T2, B7H4-IgV/B7H3-IgC.
T2 construct: also called chimeric molecule with the IgV domain of B7H4 and the IgC domain of B7H3
T2 full-length chimeric protein on cells: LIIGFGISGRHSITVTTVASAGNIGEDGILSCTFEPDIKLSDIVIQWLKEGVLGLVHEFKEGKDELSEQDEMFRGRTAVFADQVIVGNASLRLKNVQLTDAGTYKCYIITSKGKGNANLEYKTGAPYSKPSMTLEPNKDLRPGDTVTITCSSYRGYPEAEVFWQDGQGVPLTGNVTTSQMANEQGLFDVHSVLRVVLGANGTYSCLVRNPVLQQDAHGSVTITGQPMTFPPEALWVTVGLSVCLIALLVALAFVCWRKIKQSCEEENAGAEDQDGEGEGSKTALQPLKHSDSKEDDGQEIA
Kind of assay: flow cytometry, HEK cells transiently transfected with B7H4-IgV/B7H3-IgC, PE anti-human IgG F(ab')2 [panel B7H4-IgV/B7H3-IgC].

In assay [2] the target is T3, recombinant hIgG1 Fc-tagged cynomolgus monkey B7H4 (Creative BioMart, cat. no. VTCN1-1517R) (cynomolgus monkey, UniProt Q7Z7D3 25-259 (human entry)).
T3 construct: Bought protein; also called cynomolgus monkey B7H4 extracellular domain
T3 sequence: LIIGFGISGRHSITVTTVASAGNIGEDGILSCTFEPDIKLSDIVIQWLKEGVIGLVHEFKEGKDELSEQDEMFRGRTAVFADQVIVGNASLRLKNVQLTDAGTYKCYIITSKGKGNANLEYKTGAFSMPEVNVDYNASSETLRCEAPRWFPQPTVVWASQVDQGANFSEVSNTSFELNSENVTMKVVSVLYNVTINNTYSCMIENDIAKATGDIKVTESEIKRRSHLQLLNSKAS
Put plainly: BLI (Octet HTX); Fc-tagged cynomolgus B7H4 coupled to AR2G sensor, bispecific antibody in solution (monovalent B7H4 binding); 1st experiment. As to the method:
In addition, the affinity of for cynomolgus monkey B7H4 was determined by BLI. […] Amine Reactive 2nd Generation (AR2G) biosensors (FortéBio, cat. no. 18-5092) were activated by reaction with 20 mM EDC (N-(3-Dimethylaminopropyl)-N′-ethylcarbodiimide hydrochloride) (FortéBio, cat. no. 18-1033) and 10 mM s-NHS (N-hydroxysulfosuccinimide sodium salt) (FortéBio, cat. no. 18-1067) for 300 s. The activated sensors were loaded with 10 μg/mL recombinant hIgG1 Fc-tagged cynomolgus monkey B7H4 (Creative BioMart, cat. no. VTCN1-1517R) in 10 mM Sodium Acetate pH 4.0 (FortéBio, cat. no. 18-1068) for 600 s and quenched with 1 M ethanolamine pH 8.5 (FortéBio, cat. no. 18-1071) for 300 s. […] A molecular mass of 150 kDa of the antibodies was used for calculations. For each antibody a reference sensor was used, which was incubated with Sample Diluent instead of antibody.
Data were acquired using Data Acquisition Software v9.0.0.49d (FortéBio) and analyzed with Data Analysis Software v9.0.0.12 (FortéBio). Data traces were corrected per antibody by subtraction of the reference sensor. The Y-axis was aligned to the last 10 s of the baseline, Interstep Correction alignment to dissociation and Savitzky-Golay filtering were applied. Data traces with a response<0.05 nm were excluded from analysis. The data was fitted with the 1:1 Global Full fit model using a window of interest for the association and dissociation times set at 100 s and 200 s respectively.

Description for B7H4-IgV/B7H3-IgC: After washing twice in FACS buffer, cells were incubated with secondary antibody at 4° C. for 30 min. […] Next, cells were washed twice in FACS buffer, re-suspended in 20 μL FACS buffer and analyzed on an iQue Screener (Intellicyt Corporation, USA).
Further experiments were conducted to study the B7H4 domain specificity of the B7H4 antibodies in more detail, by analysis of full dose-response curves.

B1: IgG1-B7H4-C3-FEAR (antibody, V domains shown)
VH: EVQLVQSGAEVKKPGASVKVSCKASGYTFTNFWIHWVRQAPGQGLEWIGEIDPSDSYTNYNQKFKGRVTITRDTSTSTAYLELSSLRSEDTAVYYCAREITTVDYWGQGTLVTVSS
VL: DIQMTQSPSSLSASVGDRVTITCSATSSISYMHWYQQKPGKAPKGWIYDTSKLAHGVPSRFSGSGSGTDFTLTISSLQPEDFATYYCHQRRSYPFTFGQGTKVEIKR
notes: Full length IgG1 FEAR, kappa; variable domains from WO2014159835
In the case of B1, the binding result in assay [1] was “no binding (tested: 30 µg/ml)”.

B2: bsIgG1-huCD3-H101G-FEALxB7H4-C2-FEAR (bispecific antibody)
heavy 1: not shown
light 1: not shown
heavy 2: EVQLVQSGAEVKKPGASVKVSCKASGYTFTSYWIGWVRQAPGQGLEWIGDIYPGGGYTNYNEKFKGRVTITRDTSTSTAYLELSSLRSEDTAVYYCARLDGSSYRGAMDSWGQGTLVTVSSASTKGPSVFPLAPSSKSTSGGTAALGCLVKDYFPEPVTVSWNSGALTSGVHTFPAVLQSSGLYSLSSVVTVPSSSLGTQTYICNVNHKPSNTKVDKRVEPKSCDKTHTCPPCPAPEFEGGPSVFLFPPKPKDTLMISRTPEVTCVVVAVSHEDPEVKFNWYVDGVEVHNAKTKPREEQYNSTYRVVSVLTVLHQDWLNGKEYKCKVSNKALPAPIEKTISKAKGQPREPQVYTLPPSREEMTKNQVSLTCLVKGFYPSDIAVEWESNGQPENNYKTTPPVLDSDGSFFLYSRLTVDKSRWQQGNVFSCSVMHEALHNHYTQKSLSLSPGK
light 2: DIQMTQSPSSLSASVGDRVTITCKASQGFNKYVAWYQQKPGKAPKLLIYYTSTLQPGVPSRFSGSGSGRDYTLTISSLQPEDFATYYCLQYGNLLYAFGQGTKVEIKRTVAAPSVFIFPPSDEQLKSGTASVVCLLNNFYPREAKVQWKVDNALQSGNSQESVTEQDSKDSTYSLSSTLTLSKADYEKHKVYACEVTHQGLSSPVTKSFNRGEC
notes: also called bslgG1-huCD3-H101G-FEALxB7H4-C2-FEAR
With B2, the “EC50 (read off the curve)” value in the assay with B7H4-IgV/B7H3-IgC was ~2 µg/mL.

B3: bsIgG1-huCD3-FEALxB7H4-C1-FEAR (bispecific antibody)
heavy 1: not shown
light 1: not shown
heavy 2: QVQLQQWGAGLLKPSETLSLTCAVYGGSFSGYYWSWIRQPPGKGLEWIGEINHSGSTNYNPSLKSRVTISIDTSKNQFSLKLTSVTAADTAVFYCARGLFNWNFDSWGQGTLVTVSSASTKGPSVFPLAPSSKSTSGGTAALGCLVKDYFPEPVTVSWNSGALTSGVHTFPAVLQSSGLYSLSSVVTVPSSSLGTQTYICNVNHKPSNTKVDKRVEPKSCDKTHTCPPCPAPEFEGGPSVFLFPPKPKDTLMISRTPEVTCVVVAVSHEDPEVKFNWYVDGVEVHNAKTKPREEQYNSTYRVVSVLTVLHQDWLNGKEYKCKVSNKALPAPIEKTISKAKGQPREPQVYTLPPSREEMTKNQVSLTCLVKGFYPSDIAVEWESNGQPENNYKTTPPVLDSDGSFFLYSRLTVDKSRWQQGNVFSCSVMHEALHNHYTQKSLSLSPGK
light 2: DIQMTQSPSSLSASVGDRVTITCRASQGIRNDLGWYQQKPGKAPKRLIYGASSLQSGVPSRFSGSGSGTEFTLTISSLQPEDFATYYCLQHNSYPRTFGQGTTVEIKRTVAAPSVFIFPPSDEQLKSGTASVVCLLNNFYPREAKVQWKVDNALQSGNSQESVTEQDSKDSTYSLSSTLTLSKADYEKHKVYACEVTHQGLSSPVTKSFNRGEC
notes: also called bslgG1-huCD3-FEALxB7H4-C1-FEAR
With B3, in assay [2], the Kd came out at 5.1 nM, the koff was 0.0014 s⁻¹ and the on-rate constant (kon) was 270000 M⁻¹ s⁻¹.
